According to US20140248710A1:
Ends that are not written are not given here.

Biological target: G-131-C affinity purified goat polyclonal antibody against the N-terminus of cardiac troponin I (BiosPacific, Emeryville, Calif.)
Experiment: Competition FRET: the unlabeled N-terminal CTnI peptide is titrated against the labeled peptide-oligo conjugates for binding to G-131-C. The antibody concentration of the inset is not given. [inset]

IC50 (read off the curve): 40 nM
Binder: MADGSSDAAREPRPAC (not fully specified) [Unlabeled N-terminal CTnI peptide]
